Test results reported in paper PMC5003437, “Development and Optimization of a Thrombin Sandwich Aptamer Microarray”.

Legend:
[1] = molecular target: T1, human alpha-thrombin (Homo sapiens, UniProt P00734;P00734 328-363;364-622); test: sandwich aptamer microarray (fluorescence); thrombin captured on immobilized TBA1; LOD 0.75 nM (not Kd); 20 mM Tris, 140 mM NaCl, 5 mM KCl, 1 mM MgCl2, pH 7.5, 25 C; 30 min pre-incubation with TBA2, then 2 h on array; PBS wash
[2] = molecular target: T1, human alpha-thrombin; test: sandwich aptamer microarray (fluorescence); thrombin captured on immobilized TBA1, Cy3-streptavidin detection; LOD 0.17 nM (not Kd); 20 mM Tris, 140 mM NaCl, 5 mM KCl, 1 mM MgCl2, pH 7.5, 25 C; 30 min pre-incubation with TBA2, then 2 h on array; PBS wash

Row | Binder | binding result [1] | binding result [2]
1 | AGTCCGTGGTAGGGCAGGTTGGGGTGACT (structured_DNA) [TBA2-Cy5] | binds | –
2 | AGTCCGTGGTAGGGCAGGTTGGGGTGACT (structured_DNA) [TBA2-biotin] | – | binds
